# Measured values as given in doi:10.1101/2024.10.01.616040 (bioRxiv, 2024).
# Tests used:
# His-TEV-ORF1p (human) = His-TEV-ORF1p (human) (UniProt Q9UN81); experiment: mass photometry
# mass photometry = biological target: the molecule itself; experiment: mass photometry
percent of counts that are monomers (His-TEV-ORF1p (human)) [%],Molecule,stoichiometry N (mass photometry)
30,His-TEV-ORF1p (from UniProt Q9UN81 1-338) (natural protein),
,ΔStammer-ORF1p (natural protein) MGKKQNRKTGNSKTQSASPPPKERSSSPATEQSWMENDFDELREEGFRRSNYSELREDIQTKGKEVENFEKNLEECITRITNTEKCLKELKTKARELREECRSLRSRCDQLEERVSAMEDEMNEMKREGKFREKRIKRNEQSLQEIWDYVKRPNLRLIGVPESDVENGTKLENTLQDIIQENFPNLARQANVQIQEIQRTPQRYSSRRATPRHIIVRFTKVEMKEKMLRAAREKGRVTLKGKPIRLTADLSAETLQARREWGPIFNILKEKNFQPRISYPAKLSFISEGEIKYFIDKQMLRDFVTTRPALKELLKEALNMERNNRYQPLQNHAKM,6
,K3A/K4A-ORF1p (natural protein) MGAAQNRKTGNSKTQSASPPPKERSSSPATEQSWMENDFDELREEGFRRSNYSELREDIQTKGKEVENFEKNLEECITRITNTEKCLKELMELKTKARELREECRSLRSRCDQLEERVSAMEDEMNEMKREGKFREKRIKRNEQSLQEIWDYVKRPNLRLIGVPESDVENGTKLENTLQDIIQENFPNLARQANVQIQEIQRTPQRYSSRRATPRHIIVRFTKVEMKEKMLRAAREKGRVTLKGKPIRLTADLSAETLQARREWGPIFNILKEKNFQPRISYPAKLSFISEGEIKYFIDKQMLRDFVTTRPALKELLKEALNMERNNRYQPLQNHAKM,6
